Experimental data published in the supplement of paper PMC9170038.

Tests used:
MS2 coat protein [1] = test: apparent KD of MS2 coat protein, switch OFF state (with FMN for OFF switches, without FMN for ON switches); designed switch direction (-1 OFF switch, 1 ON switch): -1; higher = weaker reporter binding; settings: FMN input: 0 or 200 uM; Eterna round: R93 (includes R88 designs)
How it was run: (§1)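 Normalised binding curves from single clusters were fitted, and the median fit for each design is given as apparent KD. The clusters held designed RNA switches transcribed on-chip from Illumina sequencing clusters. These were titrated with SNAP-549-labelled MS2 coat protein (twofold steps from 0.7 or 1.5 nM to 3 µM, 0.8–1.5 h to 10–20 min per step) in 100 mM Tris-HCl pH 7.5, 80 mM KCl, 4 mM MgCl2, without or with constant ligand.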

MS2 coat protein [2] = test: apparent KD of MS2 coat protein, switch ON state; designed switch direction (-1 OFF switch, 1 ON switch): -1; higher = weaker reporter binding; settings: FMN input: 0 or 200 uM; Eterna round: R93 (includes R88 designs)
How it was run: as §1

Row | Sequence | apparent KD of MS2 coat protein (MS2 coat protein [1]) [nM] | apparent KD of MS2 coat protein (MS2 coat protein [2]) [nM]
1 | AAAAGACAUGAGGAUCACCCAUGUAAGGAUAUGCAGAGAGCAAAACAAAAAAAAAAAAGCAGAAGGUACAUAAA [Design2] | 65.1 | 55.4
2 | AAGAAUCGAGGAUAUACAUGAGGAUCACCCAUGUAAAAGAAAGAAGGGAAAGAGAAAAGUAGAAGGCGAAAGAA [Menkheperre Nekau I] | 27.7 | 22.6
3 | AAAAAGUCAGGAUAUGCACAAAAAAAAAUAAAAAAAAAAGUGCAGAAGGGACAUGAGGAUCACCCAUGUAAGAU [Mat - Exclusion 4 - Mayanna - D118] | 77.2 | 81
4 | AAAAAACAUGAGGAUCACCCAUGUGAGGAUAUCUGUAUCCAAAAGGAAGUGUAGGAUCGGAGAAGGCACUAGGA [Banishment 1 - Jieux - Exclusion 1] | 52.3 | 36.5
5 | AGUCAUACAGGAUAUACAUGAGGAUCACCCAUGUUUAUCCUAAAAGGGUGAUCCUCAUGUAGAAGGGUAUGACA [EX3 209: Super Stable 9] | 14.5 | 23.7
6 | GCUUGUCAAGGAUAUACAUGAGGAUCACCCAUGUGAGAGAAAAAAGUGAGAAAGAAAAGUAGAAGGUGGUGAGG [salish99-ex3-78] | 46.6 | 33.3
7 | AACUGUACAGGAUAUACAUGAGGAUCACCCAUGUGAGAAUUAAGUGGAAAACCACAAAGUAGAAGGGUACAGGA [Mat - Exclusion 3 - JL mod - D18] | 136 | 27.6
8 | AACAGUACAGGAUAUACAUGAGGAUCACCCAUGUGGGAAUUAAGUGGCGUACCACAAUGUAGAAGGGUACUGGA [JL In the Red] | 228 | 129
9 | AGGAAACAUGAGGAUCACCCAUGUGAGGAUAUGUAAAAGAAAAGAAAAGAAAGAAGAAACAGAAGGCACAAGAA [Nynetjer] | 49.1 | 49.4
10 | UAUAACCAAGGAUAUACUAACGAAACUAAUGCAUAUAUAUAACAUGAGGAUCACCCAUGUAGAAGGUGGAGAAU [JR_Exc002_Sub012] | 50.2 | 60.5
11 | AAACCACAUGAGGAUCACCCAUGUCAGGAUAUGCAAACAACAAACAACAAACAACAAAGCAGAAGGGACAACAA [63%, Olong, 2] | 18 | 13.8
12 | AAAAAGAUAGGAUAUACGUACAUGUCAAAAGACGUGAAGGGACAUGAGGAUCACCCAUGUAGAAGGGUUAAAAA [JL Wide Open 41] | 45.3 | 285
13 | AAAAAUUGAGGAUAUACGAACAUGUCAAAAGACGUGAAGGGACAUGAGGAUCACCCAUGUAGAAGGCGAAAGAA [JL Loop Breaker 1] | 19.9 | 45.1
14 | AAUAUGUCAGGAUAUGUGUAAAGAAUAAAAGAAAUAACAACACAGAAGGGACAUGAGGAUCACCCAUGUCAACA [May 33] | 18 | 24.8
15 | AAAAAGGGAGGAUAUACAUGAGUAGAUCGUGUAAAAAAAAUACAUGAGGAUCACCCAUGUAGAAGGCCCAAAAA [Ecxl-III] | 31.5 | 96.8
16 | AAAUCAGUAGGAUAUACGAUUUUAUGCUAGAUAGAGGAACCACAUGAGGAUCACCCAUGUAGAAGGACUAGAUA [EX2 Malc#24] | 16.4 | 14.5
17 | AUAAAGUGAGGAUAUGCUAAGAAGUAAAUAGACAAAUAAAUGCAGAAGGCACAUGAGGAUCACCCAUGUAAGAA [Ex 4 Tesla 4] | 26.2 | 35.9
18 | ACUUGACAUGAGGAUCACCCAUGUCAGGAUAUAGUACGACAAAUAAAUAAAAGUUCUACUAGAAGGGAUAUGGA [Amethyst 53] | 15.5 | 17
19 | AAGAAGUCAGGAUAUGCUGCUCGUCACUUGCGUGAUGAGUAGCAGAAGGGACAUGAGGAUCACCCAUGUAAAGA [Opal 14] | 65.6 | 50.7
20 | GAAAAACAUGAGGAUCACCCAUGUUAGGAUAUGCUAUGGAAAAAUAAAAUAAAACAUAGCAGAAGGGACAAAAG [Mat - Exclusion 1 - Eli mod - D29] | 88.5 | 24.7
21 | AAAAAGUCAGGAUAUACAUGAGGAUCACCCAUGUAAAAAAAAGGGAAAAAAAAAAAGGGUAGAAGGGACGAAAA [Exclusion 3] | 28.8 | 25.3
22 | AAGAAGUCAGGAUAUCGAAAAGAAAAGAAAAGAAAAGAAAACGAGAAGGGACAUGAGGAUCACCCAUGUAAGAA [Smerdis] | 25.7 | 46.5
23 | AGGAUGUCAGGAUAUGUGUAAAGAAUAAAACAAAUAACAACACAGAAGGGACAUGAGGAUCACCCAUGUUACGA [May 43] | 37.3 | 31.1
